First the molecules themselves.
B10: N-terminal domain of clathrin (domain or fragment)
chain: MAQILPIRFQEHLQLQNLGINPANIGFSTLTMESDKFICIREKVGEQAQVVIIDMNDPSNPIRRPISADSAIMNPASKVIALKAGKTLQIFNIEMKSKMKAHTMTDDVTFWKWISLNTVALVTDNAVYHWSMEGESQPVKMFDRHSSLAGCQIINYRTDAKQKWLLLTGISAQQNRVVGAMQLYSVDRKVSQPIEGHAASFAQFKMEGNAEESTLFCFAVRGQAGGKLHIIEVGTPPTGNQPFPKKAVDVFFPPEAQNDFPVAMQISEKHDVVFLITKYGYIHLYDLETGTCIYMNRISGETIFVTAPHEATAGIIGVNRKGQVLSVCVEEENIIPYITNVLQNPDLALRMAVRNNLAGAEELF

Common to all, as to assay: FP
Assay [1] concerns the target T1, C terminal domain of polyadenylate-binding protein 1 (human, UniProt P11940 544-623).
T1 chain: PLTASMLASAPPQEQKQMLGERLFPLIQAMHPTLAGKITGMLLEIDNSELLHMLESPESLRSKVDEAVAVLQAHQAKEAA

Assay [2] has as its target M 26-41 (RABV).
For assay [3], the target named is TSG101 binding peptide from ALIX (PDC6IP) (human, UniProt Q8WUM4).
For assay [4], the target named is VP40 1-20 (SEBOV).
The target of assay [5] is Reston ebolavirus (REBOV) nucleoprotein (NP) peptide (Reston ebolavirus).
Assay [6] concerns the target CEP55 binding peptide from TEX1 (human, UniProt Q8IWB6).
Assay [7] addresses CEP55 binding peptide from ALIX (human, UniProt Q8WUM4).
In assay [8] the target is Rabies virus (RABV) protein P peptide (Rabies virus).
Assay [9] deals with Nsp3_(1765-1780) (EEEV) peptide (Eastern equine encephalitis virus).
Assay [10] deals with RdRp 1840-1855 (SVV).
Assay [11] concerns the target ARRB2 367-382 (Human).
Assay [12] concerns the target AP1B1 626-641 (Human).
The target in assay [13] is B10.
Assay [14] has as its target EGFR 992-1007 (Human).
Assay [15] concerns the target NP (ZEBOV) peptide with the 340-YQQL-343 sequence (Zaire ebolavirus, UniProt P18272).
The target in assay [16] is L (OLVV).
Assay [17] has as its target Nsp4 75-90 (BAV).
Assay [18] deals with ACP2 407-422 (Human).
For assay [19], the target named is NP (ZEBOV) peptide with the 466-YGEY-469 stretch (Zaire ebolavirus, UniProt P18272).
Assay [20] addresses SYNRG 664-679 (Human).
The target of assay [21] is T2, programmed cell death 6-interacting protein (ALIX) V domain (human).
T2 chain: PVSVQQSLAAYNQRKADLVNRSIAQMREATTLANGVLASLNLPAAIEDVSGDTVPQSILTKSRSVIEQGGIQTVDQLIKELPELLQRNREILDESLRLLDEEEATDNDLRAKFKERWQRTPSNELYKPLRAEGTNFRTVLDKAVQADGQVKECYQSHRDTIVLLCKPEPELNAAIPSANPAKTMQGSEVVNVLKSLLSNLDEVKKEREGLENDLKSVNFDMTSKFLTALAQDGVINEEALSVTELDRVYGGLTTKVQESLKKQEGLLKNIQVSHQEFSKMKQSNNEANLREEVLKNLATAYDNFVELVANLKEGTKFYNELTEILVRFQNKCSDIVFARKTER

B1: P/V/C_(183-198) (HeV) peptide (peptide)
peptide: SAGLNPAAVPFVPKNQ
Broadly, the Kd is the concentration at which binding is half-saturated. B1 had a Kd in [1] of 2 µM.

B2: N_(351-366) (HCoV 229E) peptide (peptide)
peptide: HPLLNPSALEFNPSQT
B2 yielded an equilibrium dissociation constant (Kd) in assay [1] of 23 µM.

B3: PABP-interacting protein 2 peptide PAIP2_(108-123) (peptide)
peptide: KSNLNPNAKEFVPGVK
Turning to B3, the affinity in assay [1], expressed as Kd, was 0.16 µM. This Kd is about 140-fold lower than that of the molecule before.

B4: VHS domain of the ADP-ribosylation factor-binding protein GGA3 (domain or fragment)
chain: ATNPSNRQEDWEYIIGFCDQINKELEGPQIAVRLLAHKIQSPQEWEALQALTVLEACMKNCGRRFHNEVGKFRFLNELIKVVSPKYLGDRVSEKVKTKVIELLYSWTMALPEEAKIKDAYHMLKRQGIVQS
With B4, the dissociation constant Kd in assay [2] is 150 µM.

B5: P/V/C_(183-198) (NiV) peptide (peptide)
peptide: TTGLNPTAVPFTLRNL
B5 returned a Kd in [1] of 15 µM.

B6: N_(2-17) (BeV) peptide (peptide)
chain: NSMLNPNAVPFQPSPQ
Consider B6, for which the equilibrium dissociation constant (Kd) in assay [1] was determined as 2.7 µM.

B7: tumor susceptibility gene 101 protein UEV domain (domain or fragment)
chain: AVSESQLKKMVSKYKYRDLTVRETVNVITLYKDLKPVLDSYVFNDGSSRELMNLTGTIPVPYRGNTYNIPICLWLLDTYPYNPPICFVKPTSSMTIKTGKHVDANGKIYLPYLHEWKHPQSDLLGLIQVMIVVFGDEPPVFSRP
In the case of B7, the dissociation constant Kd came out at 150 µM in assay [3] and 12 µM in assay [4].

B8: PABP-interacting protein 1 peptide PAIP1_(125-140) (peptide)
peptide: MSKLSVNAPEFYPSGY
B8: in [1], binding was characterised by a dissociation constant (Kd) of 1.6 µM. This lies in the single-digit micromolar range.

B9: centrosomal protein of 55 kDa EABR domain (domain or fragment)
chain: FNSSINNIHEMEIQLKDALEKNQQWLVYDQQREVYVKGLLAKIFELEKKTETAAH
Turning to B9, the equilibrium dissociation constant (Kd) in [5] was 2.2 µM; in assay [6], around 0.3 µM; in assay [7], around 0.3 µM; in [8] it was 22 µM.

Turning to B10, the Kd in assay [9] was 27 µM; in assay [10], around 800 µM; in [11], 39 µM; in assay [12], 280 µM.

B11: mu-NS_(705-720) (MRV1) peptide (peptide)
peptide: VDGAADLIDFSVPTDE
As to B11, the Kd in [13] stood at 32 µM.

B12: Mu homology domain (MHD) of the AP-2 subunit mu (domain or fragment)
chain: RNELFLDVLESVNLLMSPQGQVLSAHVSGRVVMKSYLSGMPECKFGMNDKIVIEKQGKGTADETSKSGKQSIAIDDCTFHQCVRLSKFDSERSISFIPPDGEFELMRYRTTKDIILPFRVIPLVREVGRTKLEVKVVIKSNFKPSLLAQKIEVRIPTPLNTSGVQVICMKGKAKYKASENAIVWKIKRMAGMKESQISAEIELLPTNDKKKWARPPISMNFEVPFAPSGLKVRYLKVFEPKLNYSDHDVIKWVRYIGRSGIYETR
In the case of B12, the dissociation constant Kd in [14] came out at 2.4 µM; in assay [15], 9.5 µM; in assay [16] it was 11 µM; in assay [17], 16 µM; in assay [18], 220 µM.

B13: GAE domain of the ADP-ribosylation factor-binding protein GGA3 (domain or fragment)
chain: SSALPVTAYDKNGFRILFHFAKECPPGRPDVLVVVVSMLNTAPLPVKSIVLQAAVPKSMKVKLQPPSGTELSPFSPIQPPAAITQVMLLANPLKEKVRLRYKLTFALGEQLSTEVGEVDQFP
Consider B13, for which the results for the Kd in assay [19] and in [20] were 10 µM and 11 µM, respectively.

B14: Nsp4_(118-142) (BAV) peptide (peptide)
chain: VDEEKGLYPNLKLTEPTAPMIHNYM
In assay [21], B14 gave a dissociation constant (Kd) of 160 µM.

These data come from paper PMC10132805 (2023).
